Reference: the Immune Epitope Database (IEDB)
Blank lines part the entries; values can stand above or below the sequence they belong to.

Columns and labels:
HLA-C*14:02 = experiment: IEDB peptide-MHC binding, purified MHC/direct/fluorescence; filed as Kd, often an IC50 or EC50 that approximates it; ≥ and ≤ were set here for values at or beyond the usual limits of such assays
HLA-B*08:01 [1] = experiment: IEDB peptide-MHC binding, purified MHC/competitive/fluorescence; filed as Kd, often an IC50 or EC50 that approximates it; ≥ and ≤ were set here for values at or beyond the usual limits of such assays; conditions: source organism: Bacillus anthracis str. A0488
HLA-B*08:01 [2] = experiment: IEDB peptide-MHC binding, purified MHC/direct/fluorescence; filed as Kd, often an IC50 or EC50 that approximates it; ≥ and ≤ were set here for values at or beyond the usual limits of such assays
HLA-A*30:01 = experiment: as above
HLA-B*58:01 [3] = experiment: as above
HLA-B*40:01 = experiment: as above
HLA-A*11:01 = experiment: as above
HLA-A*26:01 [4] = experiment: as above
HLA-A*01:01 = experiment: as above
HLA-A*69:01 [5] = experiment: as above
HLA-A*02:01 [6] = experiment: as above
HLA-A*24:03 = experiment: as above
HLA-B*07:02 [7] = experiment: as above
HLA-A*03:01 = experiment: as above
HLA-B*27:05 [8] = experiment: as above
HLA-C*03:03 = experiment: as above; conditions: source organism: Bacillus mycoides KBAB4
HLA-C*12:03 = experiment: as above
HLA-C*06:02 = experiment: as above
HLA-B*08:02 = experiment: as above; conditions: source organism: dengue virus type 4
HLA-C*07:02 = experiment: as above
HLA-C*15:02 = experiment: as above; conditions: source organism: Cytophaga hutchinsonii ATCC 33406
HLA-A*02:01 [9] = experiment: IEDB peptide-MHC binding, purified MHC/competitive/fluorescence; filed as Kd, often an IC50 or EC50 that approximates it; ≥ and ≤ were set here for values at or beyond the usual limits of such assays
HLA-B*07:02 [10] = experiment: IEDB peptide-MHC binding, purified MHC/competitive/fluorescence; ≥ and ≤ were set here for values at or beyond the usual limits of such assays
HLA-A*31:01 = experiment: IEDB peptide-MHC binding, purified MHC/direct/fluorescence; filed as Kd, often an IC50 or EC50 that approximates it; ≥ and ≤ were set here for values at or beyond the usual limits of such assays
HLA-B*15:01 [11] = experiment: as above
HLA-B*46:01 = experiment: IEDB peptide-MHC binding, purified MHC/competitive/fluorescence; filed as Kd, often an IC50 or EC50 that approximates it; ≥ and ≤ were set here for values at or beyond the usual limits of such assays
HLA-A*02:12 = experiment: IEDB peptide-MHC binding, purified MHC/direct/fluorescence; filed as Kd, often an IC50 or EC50 that approximates it; ≥ and ≤ were set here for values at or beyond the usual limits of such assays
HLA-A*02:11 = experiment: as above
HLA-A*68:02 = experiment: as above
HLA-A*02:16 = experiment: as above
HLA-A*02:19 = experiment: as above
HLA-A*02:03 = experiment: as above
HLA-B*51:01 = experiment: IEDB peptide-MHC binding, purified MHC/competitive/fluorescence; filed as Kd, often an IC50 or EC50 that approximates it; ≥ and ≤ were set here for values at or beyond the usual limits of such assays
HLA-B*58:01 [12] = experiment: as above; conditions: source organism: Zaire ebolavirus
HLA-B*18:01 = experiment: as above
HLA-A*26:01 [13] = experiment: as above
HLA-B*39:01 = experiment: as above
HLA-B*27:03 = experiment: as above; conditions: source organism: Zaire ebolavirus
HLA-A*69:01 [14] = experiment: as above; conditions: source organism: Zaire ebolavirus
HLA-B*15:01 [15] = experiment: as above
HLA-B*15:17 = experiment: as above; conditions: source organism: Orthohantavirus sinnombreense
HLA-B*27:05 [16] = experiment: as above; conditions: source organism: Orthohantavirus sinnombreense
HLA-B*57:01 = experiment: as above; conditions: source organism: Orthohantavirus sinnombreense
HLA-A*02:01 [17] = experiment: IEDB peptide-MHC binding, purified MHC/competitive/fluorescence; ≥ and ≤ were set here for values at or beyond the usual limits of such assays; conditions: source organism: Zaire ebolavirus
[18] = source organism: Pseudomonas aeruginosa UCBPP-PA14
[19] = source organism: Pseudomonas aeruginosa
[20] = source organism: Bacillus mycoides KBAB4
[21] = source organism: Dengue virus 2 Jamaica/1409/1983
[22] = source organism: Giardia lamblia ATCC 50803
[23] = source organism: West Nile virus
[24] = source organism: Zaire ebolavirus
[25] = source organism: Limestone Canyon virus
[26] = source organism: Orthohantavirus sinnombreense

Sequence: AANMYIYPL
Kd (HLA-C*14:02; source organism: Bacillus anthracis str. A0488): 0.057 µM
Kd (HLA-B*08:01 [1]): 1.1 µM

Kd (HLA-B*08:01 [2]; [18]): ≥ 20 µM
Kd (HLA-A*30:01; [19]): ≥ 31.6 µM
Kd (HLA-B*58:01 [3]; [19]): 4.7 µM
Kd (HLA-B*40:01; [18]): ≥ 20 µM
Kd (HLA-A*11:01; [18]): ≥ 20 µM
Kd (HLA-A*26:01 [4]; [18]): ≥ 20 µM
Kd (HLA-A*01:01; [18]): ≥ 20 µM
Kd (HLA-A*69:01 [5]; [18]): ≥ 20 µM
Kd (HLA-A*02:01 [6]; [18]): ≥ 20 µM
Kd (HLA-A*24:03; [19]): 0.00184 µM
Kd (HLA-B*07:02 [7]; [18]): ≥ 20 µM
Kd (HLA-A*03:01; [18]): ≥ 20 µM
Kd (HLA-B*27:05 [8]; [18]): ≥ 20 µM
Sequence: AYGSRFHEW

Kd (HLA-C*14:02; source organism: Mus musculus): 0.027 µM
Sequence: AYVTWIALM

Sequence: FAFCRITSF
Kd (HLA-C*03:03): 0.002 µM
Kd (HLA-C*12:03; [20]): ≤ 0.001 µM
Kd (HLA-C*06:02; [20]): 1.08 µM

Sequence: FRKKRLTIM
Kd (HLA-B*08:02): 4.43 µM
Kd (HLA-C*07:02; [21]): 0.446 µM
Kd (HLA-C*06:02; [21]): 0.018 µM

Kd (HLA-C*15:02): ≥ 20 µM
Kd (HLA-A*02:01 [9]; source organism: Cytophaga hutchinsonii ATCC 33406): 0.0006 µM
Sequence: GLADAFILL

Sequence: IPSSSPTTA
IC50 (HLA-B*07:02 [10]; source organism: Sudan ebolavirus): 22.1 µM

Sequence: KQYNVTQAF
Kd (HLA-B*58:01 [3]; source organism: SARS-CoV1): 1.01 µM
Kd (HLA-B*40:01; source organism: SARS-CoV1): 5.33 µM
Kd (HLA-A*11:01; source organism: SARS-CoV1): ≥ 28.4 µM
Kd (HLA-A*02:01 [6]; source organism: SARS-CoV1): ≥ 51.3 µM
Kd (HLA-C*14:02; source organism: SARS-CoV1): 0.002 µM
Kd (HLA-A*31:01; source organism: SARS-CoV1): 0.449 µM
Kd (HLA-A*03:01; source organism: SARS-CoV1): 6.35 µM
Kd (HLA-B*27:05 [8]; source organism: SARS-CoV1): 0.538 µM
Kd (HLA-B*15:01 [11]; source organism: SARS-CoV1): 0.0871 µM
Kd (HLA-B*46:01; source organism: SARS-CoV1): 0.0652 µM

Sequence: KVGVYKMHK
Kd (HLA-B*08:01 [2]; [22]): ≥ 20 µM
Kd (HLA-A*30:01; [22]): 0.0152 µM
Kd (HLA-B*58:01 [3]; [22]): ≥ 20 µM
Kd (HLA-B*40:01; [22]): ≥ 20 µM
Kd (HLA-A*11:01; [22]): 0.0334 µM
Kd (HLA-A*26:01 [4]; [22]): ≥ 20 µM
Kd (HLA-A*01:01; [22]): ≥ 20 µM
Kd (HLA-A*69:01 [5]; [22]): ≥ 20 µM
Kd (HLA-A*02:01 [6]; [22]): ≥ 20 µM
Kd (HLA-A*24:03; [22]): ≥ 20 µM
Kd (HLA-A*31:01; [22]): 0.0552 µM
Kd (HLA-B*07:02 [7]; [22]): ≥ 20 µM
Kd (HLA-A*03:01; [22]): 0.163 µM
Kd (HLA-B*27:05 [8]; [22]): ≥ 20 µM
Kd (HLA-B*15:01 [11]; [22]): ≥ 20 µM

Sequence: SLYAVTTAV
Kd (HLA-C*12:03; [23]): 0.027 µM
Kd (HLA-A*02:01 [9]; [23]): 0.00137 µM

Sequence: VLMKQIPIW
Kd (HLA-A*02:12; [24]): ≥ 20 µM
Kd (HLA-A*02:11; [24]): ≥ 20 µM
Kd (HLA-A*68:02; [24]): ≥ 20 µM
Kd (HLA-A*02:16; [24]): ≥ 20 µM
Kd (HLA-A*02:19; [24]): ≥ 20 µM
Kd (HLA-A*02:03; [24]): ≥ 20 µM
Kd (HLA-A*03:01; [24]): ≥ 20 µM
Kd (HLA-B*51:01; [24]): ≥ 20 µM
Kd (HLA-B*58:01 [12]): 0.0013 µM
Kd (HLA-B*18:01; [24]): ≥ 20 µM
Kd (HLA-A*26:01 [13]; [24]): ≥ 20 µM
Kd (HLA-B*39:01; [24]): ≥ 20 µM
Kd (HLA-B*27:03): ≥ 20 µM
Kd (HLA-A*69:01 [14]): ≥ 20 µM
Kd (HLA-A*02:01 [9]; [24]): ≥ 20 µM
Kd (HLA-B*46:01; [24]): ≥ 20 µM
Kd (HLA-B*15:01 [15]; [24]): ≥ 20 µM

Sequence: YRTLGVFRY
Kd (HLA-A*02:12; [25]): ≥ 20 µM
Kd (HLA-A*02:11; [25]): ≥ 20 µM
Kd (HLA-A*68:02; [25]): ≥ 20 µM
Kd (HLA-A*02:16; [25]): ≥ 20 µM
Kd (HLA-C*07:02; [26]): 0.048 µM
Kd (HLA-A*02:19; [25]): ≥ 20 µM
Kd (HLA-A*24:03; [25]): ≥ 20 µM
Kd (HLA-A*02:03; [25]): ≥ 20 µM
Kd (HLA-A*03:01; [25]): ≥ 20 µM
Kd (HLA-B*51:01; [26]): ≥ 20 µM
Kd (HLA-B*18:01; [26]): ≥ 20 µM
Kd (HLA-B*15:17): ≥ 20 µM
Kd (HLA-A*26:01 [13]; [26]): ≥ 20 µM
Kd (HLA-B*39:01; [26]): ≥ 20 µM
Kd (HLA-A*02:01 [9]; [26]): ≥ 20 µM
Kd (HLA-B*46:01; [26]): ≥ 20 µM
Kd (HLA-B*27:05 [16]): 0.144 µM
Kd (HLA-B*15:01 [15]; [26]): ≥ 20 µM
Kd (HLA-B*57:01): ≥ 20 µM

Sequence: YTSGKRSNT
IC50 (HLA-A*02:01 [17]): ≥ 354 µM
IC50 (HLA-B*07:02 [10]; [24]): 5.9 µM
